Data from the supplement of paper PMC11316812.
± gives the standard deviation of the averaged measurements.

Key:
MCF7 = assay: percentage of EdU-negative (G0-arrested) nuclei per well, 72 h; higher = more G0 arrest; conditions: reference: sequence is the full UniProt precursor, the tested protein was the secreted form or ectodomain
hTERT-HMEC = assay: as above; conditions: reference: sequence is the full UniProt precursor, the tested protein was the secreted form or ectodomain
[1] = protein concentration 0.0225 µM
[2] = protein concentration 0.03125 µM
[3] = protein concentration 0.3125 µM
[4] = protein concentration 0.0135 µM
[5] = protein concentration 0.0282857 µM
[6] = protein concentration 0.282857 µM
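Further: secreted proteins added to cultured cells, EdU pulse at the end, nuclei found by Hoechst imaging, EdU status from nuclear versus surrounding ring intensity ratio, PBS as neutral control.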

Sequence | percentage of EdU-negative (MCF7; [1]) [%] | percentage of EdU-negative (MCF7; protein concentration 0.225 µM) [%] | percentage of EdU-negative (hTERT-HMEC; [1]) [%] | percentage of EdU-negative (hTERT-HMEC; protein concentration 0.225 µM) [%] | also measured
MSRREGSLEDPQTDSSVSLLPHLEAKIRQTHSLAHLLTKYAEQLLQEYVQLQGDPFGLPSFSPPRLPVAGLSAPAPSHAGLPVHERLRLDAAALAALPPLLDAVCRRQAELNPRAPRLLRRLEDAARQARALGAAVEALLAALGAANRGPRAEPPAATASAASATGVFPAKVLGLRVCGLYREWLSRTEGDLGQLLPGGSA | 25.7 ± 2.9 | 26.5 ± 1.6 | 4.52 ± 0.57 | 6.17 ± 0.093 | –
MSSAAGFCASRPGLLFLGLLLLPLVVAFASAEAEEDGDLQCLCVKTTSQVRPRHITSLEVIKAGPHCPTAQLIATLKNGRKICLDLQAPLYKKIIKKLLES | – | – | – | – | percentage of EdU-negative (MCF7; [2]): 23.9 ± 0.55%; percentage of EdU-negative (MCF7; [3]): 26.1 ± 3.4%; percentage of EdU-negative (hTERT-HMEC; [2]): 5.71 ± 0.5%; percentage of EdU-negative (hTERT-HMEC; [3]): 5.011 ± 0.0019%
MSSAARSRLTRATRQEMLFLALLLLPVVVAFARAEAEEDGDLQCLCVKTTSQVRPRHITSLEVIKAGPHCPTAQLIATLKNGRKICLDLQALLYKKIIKEHLES | 25.1 ± 0.73 | 24.9 ± 0.32 | 5.03 ± 0.052 | 5.8 ± 0.41 | –
MSSEEGKLFVGGLNFNTDEQALEDHFSSFGPISEVVVVKDRETQRSRGFGFITFTNPEHASVAMRAMNGESLDGRQIRVDHAGKSARGTRGGGFGAHGRGRSYSRGGGDQGYGSGRYYDSRPGGYGYGYGRSRDYNGRNQGGYDRYSGGNYRDNYDN | – | – | – | – | percentage of EdU-negative (MCF7; [4]): 25.1 ± 3.6%; percentage of EdU-negative (MCF7; protein concentration 0.135 µM): 27 ± 1.7%; percentage of EdU-negative (hTERT-HMEC; [4]): 5 ± 0.36%; percentage of EdU-negative (hTERT-HMEC; protein concentration 0.135 µM): 8.05 ± 0.55%
MSSENCFVAENSSLHPESGQENDATSPHFSTRHEGSFQVPVLCAVMNVVFITILIIALIALSVGQYNCPGQYTFSMPSDSHVSSCSEDWVGYQRKCYFISTVKRSWTSAQNACSEHGATLAVIDSEKDMNFLKRYAGREEHWVGLKKEPGHPWKWSNGKEFNNWFNVTGSDKCVFLKNTEVSSMECEKNLYWICNKPYK | 23.5 ± 0.69 | 23.6 ± 0.57 | 5.44 ± 1.4 | 5.3 ± 0.56 | –
MSSFGYRTLTVALFTLICCPGSDEKVFEVHVRPKKLAVEPKGSLEVNCSTTCNQPEVGGLETSLDKILLDEQAQWKHYLVSNISHDTVLQCHFTCSGKQESMNSNVSVYQPPRQVILTLQPTLVAVGKSFTIECRVPTVEPLDSLTLFLFRGNETLHYETFGKAAPAPQEATATFNSTADREDGHRNFSCLAVLDLMSRGGNIFHKHSAPKMLEIYEPVSDSQMVIIVTVVSVLLSLFVTSVLLCFIFGQHLRQQRMGTYGVRAAWRRLPQAFRP | 24.9 ± 0.91 | 27.28 ± 0.18 | 5.54 ± 0.21 | 6.02 ± 0.093 | –
MSSFSTTTVSFLLLLAFQLLGQTRANPMYNAVSNADLMDFKNLLDHLEEKMPLEDEVVPPQVLSEPNEEAGAALSPLPEVPPWTGEVSPAQRDGGALGRGPWDSSDRSALLKSKLRALLTAPRSLRRSSCFGGRMDRIGAQSGLGCNSFRY | 25 ± 2.1 | 25.7 ± 1.1 | 4.9 ± 0.49 | 6.92 ± 0.56 | –
MSSSCSGLSRVLVAVATALVSASSPCPQAWGPPGVQYGQPGRSVKLCCPGVTAGDPVSWFRDGEPKLLQGPDSGLGHELVLAQADSTDEGTYICQTLDGALGGTVTLQLGYPPARPVVSCQAADYENFSCTWSPSQISGLPTRYLTSYRKKTVLGADSQRRSPSTGPWPCPQDPLGAARCVVHGAEFWSQYRINVTEVNPLGASTRLLDVSLQSILRPDPPQGLRVESVPGYPRRLRASWTYPASWPCQPHFLLKFRLQYRPAQHPAWSTVEPAGLEEVITDAVAGLPHAVRVSARDFLDAGTWSTWSPEAWGTPSTGTIPKEIPAWGQLHTQPEVEPQVDSPAPPRPSLQPHPRLLDHRDSVEQVAVLASLGILSFLGLVAGALALGLWLRLRRGGKDGSPKPGFLASVIPVDRRPGAPNL | – | – | – | – | percentage of EdU-negative (MCF7; [2]): 26.9 ± 2%; percentage of EdU-negative (MCF7; [3]): 36.6 ± 0.72%; percentage of EdU-negative (hTERT-HMEC; [2]): 4.53 ± 0.46%; percentage of EdU-negative (hTERT-HMEC; [3]): 11.8 ± 0.14%
MSSWSRQRPKSPGGIQPHVSRTLFLLLLLAASAWGVTLSPKDCQVFRSDHGSSISCQPPAEIPGYLPADTVHLAVEFFNLTHLPANLLQGASKLQELHLSSNGLESLSPEFLRPVPQLRVLDLTRNALTGLPPGLFQASATLDTLVLKENQLEVLEVSWLHGLKALGHLDLSGNRLRKLPPGLLANFTLLRTLDLGENQLETLPPDLLRGPLQLERLHLEGNKLQVLGKDLLLPQPDLRYLFLNGNKLARVAAGAFQGLRQLDMLDLSNNSLASVPEGLWASLGQPNWDMRDGFDISGNPWICDQNLSDLYRWLQAQKDKMFSQNDTRCAGPEAVKGQTLLAVAKSQ | – | – | – | – | percentage of EdU-negative (MCF7; [5]): 22.3 ± 2.4%; percentage of EdU-negative (MCF7; [6]): 25.7 ± 1.4%; percentage of EdU-negative (hTERT-HMEC; [5]): 4.97 ± 0.88%; percentage of EdU-negative (hTERT-HMEC; [6]): 6.814 ± 0.037%
MSVMKPCLMTIAILMILAQKTPGGLFRSHNGKSREPWNPCELYQGMCRNACREYEIQYLTCPNDQKCCLKLSVKITSSKNVKEDYDSNSNLSVTNSSSYSHI [Q30KQ4] | 25.4 ± 1.7 | 23.5 ± 1.3 | 5.55 ± 0.29 | 5.56 ± 0.81 | –
